Test results taken from patent publication US11214614B2, “LTBP complex-specific inhibitors of TGFβ and uses thereof” (Scholar Rock, Inc., priority 2019, dated 2022).

What was measured:
[1] = molecular target: huLTBP3 proTGFβ1 (Homo sapiens, UniProt P01137+Q9NS15); assay: Octet (BLI) binding, IgG captured on AHC tips, antigen at 100 nM; settings: Table 9, cycle 3, IgG1-agly; for Hu LTBP3-proTGFβ1 Kon: 1:1 fit; for Hu LTBP3-proTGFβ1 Koff: 5-minute dissociation
Protocol: (§1) Suitable methods for in vitro binding assays to determine the parameters of binding kinetics include Bio-layer Interferometry (BLI)-based assays such as Octet, and surface plasmon resonance (SPR)-based assays, such as Biacore systems (see, for example: biophysics.bioc.cam.ac.uk/wp-content/uploads/2011/02/Biacore_assay_handbook.pdf).
(§2) The affinity of SR-AB10, SR-AB2 and SR-AB13 was measured by Octet assay. The protocol used to measure the affinity of the antibodies to the complexes provided herein is summarized below.
(§3) • 96 well black polypropylene plates • AHC Octet tips (anti-human IgG Fc capture tips) (FortdBio) • 10× kinetics buffer (FortdBio) (diluted to 1× in PBS) • reiner Bio-One 96-Well Half Area Microplates (VWR cat #82050-044) Procedure:
(§4) Notes: The volume within each well during an Octet experiment is 100 uL.
(§5) A shake speed of 1000 rpm is used for all assay steps.
(§6) Pre-Wet Tips: • Biosensors must be pre-wet in 1× kinetics buffer (lx KB) for at least 10 minutes before starting an experiment. This can be done inside the Octet or on the bench.
(§7) Loading: • Tips are baselined in 1× KB for 1 minute before loading. • AHC tips are loaded with antibody at a concentration of 1 μg/mL (˜7 nM) for 3 minutes. A limit is set so that loading will stop when any one sensor reaches a response of 1 nanometer. • Tips are baselined in buffer for 1 minute after loading. The antibody should not dissociate from the tips during this time.
(§8) Antigen Association: • TGFβ1 in complex with various presentation molecules was associated to the immobilized antibodies at a single concentration of 100 nM in 1× KB.
(§9) Antibody Dissociation: • Dissociation in 1×KB was performed for 3 minutes.
(§10) Data Analysis using ForteBio Data analysis software 8.2: • Processing: align Y axis to last 5 seconds of baseline, perform inter-step correction with align to dissociation, and perform Savitzky-Golay filtering. • Analysis: 1:1 fitting model is utilized. Fitting is local and full. […] Results:
(§11) LTBP complex-specific antibodies from the first round of affinity maturation/optimization (SR-AB14, SR-AB16, SR-AB17, SR-AB18, SR-AB19) were selected for a second round of affinity maturation/optimization (i.e., CDR-H3 mutagenesis as described herein) and particular progeny antibodies (SR-AB20, SR-AB21, SR-AB22, SR-AB23, SR-AB24, SR-AB25, SR-AB26, SR-AB27, SR-AB28, and SR-AB29) were assessed for their ability to bind various proTGFβl constructs. Binding affinities of the optimized antibodies were measured by Octet against human LTBP1-proTGFβI, human LTBP3-proTGFb1, mouse LTBP1-proTGFβ1, mouse LTBP3-proTGFb1, and GARP-proTGFβl complexes, essentially as described in Example 6. In brief, test antibodies were immobilized to the surface of anti-human Fc capture biosensors (AHC) (ForteBio®) and binding was then tested against the various TGFβ1 complexes at a single concentration of 100 nM to assess binding affinities. The antigens were allowed to associate for 3 minutes followed by a 5-minute dissociation. Kinetics buffer (ForteBio®) was used throughout the experiment, and KD was determined using a 1:1 fitting model for each antibody antigen pair.
(§12) Binding affinities of the optimized antibodies were measured by Octet against human LTBP1-proTGFβ1, human LTBP3-proTGFβ1, mouse LTBP1-proTGFβ1, mouse LTBP3-proTGFβ1, and GARP-proTGFβ1 complexes, essentially as described in Example 6. In brief, test antibodies were immobilized to the surface of anti-human Fc capture biosensors (AHC) (ForteBio®) and binding was then tested against the various TGFβ1 complexes at a single concentration of 100 nM to assess binding affinities. The antigens were allowed to associate for 3 minutes followed by a 5-minute dissociation. Kinetics buffer (ForteBio®) was used throughout the experiment, and KD was determined using a 1:1 fitting model for each antibody antigen pair.

[2] = molecular target: huLTBP1 proTGFβ1 (Homo sapiens, UniProt P01137+Q14766); assay: as above; settings: Table 9, cycle 3, IgG1-agly; for Hu LTBP1-proTGFβ1 Kon: 1:1 fit; for Hu LTBP1-proTGFβ1 Koff: 5-minute dissociation
Chain of huLTBP1 proTGFβ1 (P01137 30-390): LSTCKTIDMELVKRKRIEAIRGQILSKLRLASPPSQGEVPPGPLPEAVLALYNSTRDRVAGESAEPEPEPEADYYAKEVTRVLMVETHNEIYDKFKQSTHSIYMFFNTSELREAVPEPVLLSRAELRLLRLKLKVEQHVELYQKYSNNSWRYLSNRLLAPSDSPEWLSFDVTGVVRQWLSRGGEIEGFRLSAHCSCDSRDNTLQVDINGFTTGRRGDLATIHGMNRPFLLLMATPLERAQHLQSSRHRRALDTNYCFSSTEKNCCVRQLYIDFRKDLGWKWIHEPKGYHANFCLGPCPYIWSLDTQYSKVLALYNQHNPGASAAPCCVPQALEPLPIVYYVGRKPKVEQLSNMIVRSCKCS
Chain of huLTBP1 proTGFβ1 (Q14766 347-1721 limits assumed): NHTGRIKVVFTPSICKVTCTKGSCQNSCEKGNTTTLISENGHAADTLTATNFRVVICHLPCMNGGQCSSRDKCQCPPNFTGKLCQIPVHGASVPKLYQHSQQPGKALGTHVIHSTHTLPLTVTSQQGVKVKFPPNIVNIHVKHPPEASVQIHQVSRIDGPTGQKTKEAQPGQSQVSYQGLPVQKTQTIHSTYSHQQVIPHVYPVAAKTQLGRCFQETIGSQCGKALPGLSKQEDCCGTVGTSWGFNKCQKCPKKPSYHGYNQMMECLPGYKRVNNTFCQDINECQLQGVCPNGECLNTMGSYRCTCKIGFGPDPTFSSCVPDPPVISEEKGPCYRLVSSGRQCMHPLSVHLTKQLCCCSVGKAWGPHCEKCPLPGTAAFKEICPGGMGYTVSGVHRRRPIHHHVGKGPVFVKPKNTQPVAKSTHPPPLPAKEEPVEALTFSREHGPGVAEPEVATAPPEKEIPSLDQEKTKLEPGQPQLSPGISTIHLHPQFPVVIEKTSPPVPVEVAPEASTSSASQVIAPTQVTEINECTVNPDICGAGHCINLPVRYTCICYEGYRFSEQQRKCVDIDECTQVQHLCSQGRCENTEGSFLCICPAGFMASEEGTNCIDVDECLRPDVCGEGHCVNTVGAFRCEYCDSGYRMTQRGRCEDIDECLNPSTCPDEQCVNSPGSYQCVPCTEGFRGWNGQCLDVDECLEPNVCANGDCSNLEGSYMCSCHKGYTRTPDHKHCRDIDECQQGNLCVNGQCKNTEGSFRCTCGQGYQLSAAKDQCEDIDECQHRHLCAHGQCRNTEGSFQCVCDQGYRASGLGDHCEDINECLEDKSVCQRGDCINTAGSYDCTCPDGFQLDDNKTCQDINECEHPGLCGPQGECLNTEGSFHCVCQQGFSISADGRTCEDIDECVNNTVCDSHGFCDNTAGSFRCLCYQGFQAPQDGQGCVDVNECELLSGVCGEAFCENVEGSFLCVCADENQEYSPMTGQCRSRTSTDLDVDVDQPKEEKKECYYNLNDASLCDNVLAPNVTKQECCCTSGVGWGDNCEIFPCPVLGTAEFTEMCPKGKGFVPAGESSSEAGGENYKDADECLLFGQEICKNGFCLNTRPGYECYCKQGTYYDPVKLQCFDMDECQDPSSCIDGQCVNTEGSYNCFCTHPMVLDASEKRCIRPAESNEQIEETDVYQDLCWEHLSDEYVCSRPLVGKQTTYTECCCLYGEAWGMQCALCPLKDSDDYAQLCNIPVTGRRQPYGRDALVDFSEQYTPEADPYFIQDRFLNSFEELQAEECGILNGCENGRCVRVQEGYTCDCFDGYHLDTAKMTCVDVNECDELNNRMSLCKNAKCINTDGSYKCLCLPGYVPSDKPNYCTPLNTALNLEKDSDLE
Protocol: as §1, §2, §3, §4, §5, §6, §7, §8, §9, §10, §11
as §12, with “pair. […]” for “pair.”

[3] = tested on: proTGFβ1 presented by endogenous LTBP1/3 in LN229 cells; assay: Endogenous LTBP caga assay: LN229 cells transfected with human proTGFβ1 only, CAGA12 luciferase reporter cells; format: cell-based; settings: Table 20: protocol of Example 10 with Fabs (RefAb also as hIgG4), assay format not stated
Chain of proTGFβ1 presented by endogenous LTBP1/3 in LN229 cells (P01137 30-390): as the sequence (P01137 30-390) above

Chain of huLTBP3 proTGFβ1 (P01137 30-390): as above
Chain of huLTBP3 proTGFβ1 (Q9NS15 44-1303): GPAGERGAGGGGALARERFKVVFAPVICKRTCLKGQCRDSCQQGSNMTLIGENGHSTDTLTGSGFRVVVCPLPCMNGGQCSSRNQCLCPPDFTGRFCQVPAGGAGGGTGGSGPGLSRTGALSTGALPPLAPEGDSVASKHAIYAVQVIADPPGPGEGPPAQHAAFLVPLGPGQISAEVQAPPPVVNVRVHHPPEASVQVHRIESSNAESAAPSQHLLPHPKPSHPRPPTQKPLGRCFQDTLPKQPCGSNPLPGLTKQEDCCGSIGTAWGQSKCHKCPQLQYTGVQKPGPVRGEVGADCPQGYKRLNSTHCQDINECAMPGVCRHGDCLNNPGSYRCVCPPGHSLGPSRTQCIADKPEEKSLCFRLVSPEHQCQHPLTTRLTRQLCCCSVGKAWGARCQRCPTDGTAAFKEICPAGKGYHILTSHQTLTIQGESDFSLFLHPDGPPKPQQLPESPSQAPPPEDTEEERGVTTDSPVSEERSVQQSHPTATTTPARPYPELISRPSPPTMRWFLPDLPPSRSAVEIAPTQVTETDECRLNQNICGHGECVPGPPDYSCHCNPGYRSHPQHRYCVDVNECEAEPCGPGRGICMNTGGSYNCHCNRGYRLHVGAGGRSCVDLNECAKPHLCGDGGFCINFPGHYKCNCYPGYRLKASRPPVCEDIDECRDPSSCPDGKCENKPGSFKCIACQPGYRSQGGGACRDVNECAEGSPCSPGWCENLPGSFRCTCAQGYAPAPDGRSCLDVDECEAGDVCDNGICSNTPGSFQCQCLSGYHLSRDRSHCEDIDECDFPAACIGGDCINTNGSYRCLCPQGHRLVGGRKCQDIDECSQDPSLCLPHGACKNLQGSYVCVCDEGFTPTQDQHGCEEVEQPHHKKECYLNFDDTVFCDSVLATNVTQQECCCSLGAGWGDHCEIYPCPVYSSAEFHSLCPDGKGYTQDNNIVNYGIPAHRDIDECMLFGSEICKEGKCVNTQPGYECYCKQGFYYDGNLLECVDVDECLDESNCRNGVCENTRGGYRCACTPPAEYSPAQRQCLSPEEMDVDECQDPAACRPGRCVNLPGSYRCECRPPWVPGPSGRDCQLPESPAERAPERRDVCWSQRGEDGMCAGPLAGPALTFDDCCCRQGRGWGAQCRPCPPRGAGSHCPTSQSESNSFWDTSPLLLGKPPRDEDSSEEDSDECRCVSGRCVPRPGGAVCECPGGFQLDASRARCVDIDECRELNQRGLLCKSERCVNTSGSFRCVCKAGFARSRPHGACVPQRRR

Row | Hu LTBP3-proTGFβ1 Kon [1] | Hu LTBP3-proTGFβ1 Koff [1] | Hu LTBP1-proTGFβ1 Kon [2] | Hu LTBP1-proTGFβ1 Koff [2] | IC50 [3] | Molecule
1 | 372000 M⁻¹ s⁻¹ | 6.68e-05 s⁻¹ | 259000 M⁻¹ s⁻¹ | 6e-05 s⁻¹ |  | SR-AB34: cycle 3 light chain-optimized antibody, lineage SR-AB22; CDRs SEQ ID NO: 130-135 (antibody, V domains shown) VH: QVQLVESGGGVVQPGRSLRLSCAASGFTFRSYVMHWVRQAPGKGLEWVAVISHEGSLKYYADSVKGRFTISRDNSKNTLYLQMNSLRAEDTAVYYCAVPRIAARRGGFGYWGQGTLVTVSS VL: NFMLTQPHSVSESPGKTVTISCTRSSGNIDNNYVQWYQQRPGSSPTTVIYEDNQRPSGVPDRFSGSIDSSSNSASLTISGLKTEDEADYYCQSYDYDAQGVVFGGGTKLTVL
2 | 410000 M⁻¹ s⁻¹ | 6e-05 s⁻¹ | 280000 M⁻¹ s⁻¹ | 6e-05 s⁻¹ |  | SR-AB44: cycle 3 light chain-optimized antibody, lineage SR-AB23; CDRs SEQ ID NO: 178-183 (antibody, V domains shown) VH: QVQLVESGGGVVQPGRSLRLSCAASGFTFRSYVMHWVRQAPGKGLEWVAVISHEGSLKYYADSVKGRFTISRDNSKNTLYLQMNSLRAEDTAVYYCARPRIAARRGGFGYWGQGTLVTVSS VL: NFMLTQPHSVSESPGKTVTISCTRSHGNIDDNYVQWYQQRPGSSPTTVIYEDNVRPSGVPDRFSGSIDSSSNSASLTISGLKTEDEADYYCQSYDSDNQLVVFGGGTKLTVL
3 |  |  |  |  | 0.47 nM | SR-AB61 Fab (antibody, V domains shown) VH: QVQLVESGGGVVQPGRSLRLSCAASGFTFRSYVMHWVRQAPGKGLEWVAVISHEGSGKYYADSVKGRFTISRDNSKNTLYLQMNSLRAEDTAVYYCALPRIAARRGGFGTWGQGTLVTVSS VL: NFMLTQPHSVSESPGKTVTISCTRSSGNIDYNYVQWYQQRPGSSPTTVIYEDNVRPSGVPDRFSGSIDSSSNSASLTISGLKTEDEADYYCQGYDWDTQGVVFGGGTKLTVL
4 | 255000 M⁻¹ s⁻¹ | 6e-05 s⁻¹ | 203000 M⁻¹ s⁻¹ | 6e-05 s⁻¹ |  | SR-AB41: cycle 3 light chain-optimized antibody, lineage SR-AB23; CDRs SEQ ID NO: 160-165 (antibody, V domains shown) VH: QVQLVESGGGVVQPGRSLRLSCAASGFTFRSYVMHWVRQAPGKGLEWVAVISHEGSLKYYADSVKGRFTISRDNSKNTLYLQMNSLRAEDTAVYYCARPRIAARRGGFGYWGQGTLVTVSS VL: NFMLTQPHSVSESPGKTVTISCTRSSGNIDNNYVQWYQQRPGSSPTTVIYEDNQRPSGVPDRFSGSIDSSSNSASLTISGLKTEDEADYYCQSYDYDNQAVVFGGGTKLTVL
5 | 502000 M⁻¹ s⁻¹ | 7.26e-05 s⁻¹ | 327000 M⁻¹ s⁻¹ | 0.000117 s⁻¹ |  | SR-AB38: cycle 3 light chain-optimized antibody, lineage SR-AB22; CDRs SEQ ID NO: 142-147 (antibody, V domains shown) VH: QVQLVESGGGVVQPGRSLRLSCAASGFTFRSYVMHWVRQAPGKGLEWVAVISHEGSLKYYADSVKGRFTISRDNSKNTLYLQMNSLRAEDTAVYYCAVPRIAARRGGFGYWGQGTLVTVSS VL: NFMLTQPHSVSESPGKTVTISCTRSSGSIDNNYVQWYQQRPGSSPTTVIYEDFIRPSGVPDRFSGSIDSSSNSASLTISGLKTEDEADYYCQSYDDDLQGVVFGGGTKLTVL
6 | 441000 M⁻¹ s⁻¹ | 6e-05 s⁻¹ | 292000 M⁻¹ s⁻¹ | 6e-05 s⁻¹ |  | SR-AB39: cycle 3 light chain-optimized antibody, lineage SR-AB22; CDRs SEQ ID NO: 148-153 (antibody, V domains shown) VH: QVQLVESGGGVVQPGRSLRLSCAASGFTFRSYVMHWVRQAPGKGLEWVAVISHEGSLKYYADSVKGRFTISRDNSKNTLYLQMNSLRAEDTAVYYCAVPRIAARRGGFGYWGQGTLVTVSS VL: NFMLTQPHSVSESPGKTVTISCTRSSGLIDDNYVQWYQQRPGSSPTTVIYEDAQRPSGVPDRFSGSIDSSSNSASLTISGLKTEDEADYYCQSYDHDEQGVVFGGGTKLTVL
7 |  |  |  |  | 0.495 nM | SR-AB46 Fab (antibody, V domains shown) VH: QVQLVESGGGVVQPGRSLRLSCAASGFTFRSYVMHWVRQAPGKGLEWVAVISHEGSGKYYADSVKGRFTISRDNSKNTLYLQMNSLRAEDTAVYYCARPRIAARRGGFGSWGQGTLVTVSS VL: NFMLTQPHSVSESPGKTVTISCTRSSGNIDYNYVQWYQQRPGSSPTTVIYEDNVRPSGVPDRFSGSIDSSSNSASLTISGLKTEDEADYYCQSYDSDNQRVVFGGGTKLTVL
8 | 491000 M⁻¹ s⁻¹ | 6e-05 s⁻¹ | 310000 M⁻¹ s⁻¹ | 6e-05 s⁻¹ |  | SR-AB45: cycle 3 light chain-optimized antibody, lineage SR-AB23; CDRs SEQ ID NO: 184-189 (antibody, V domains shown) VH: QVQLVESGGGVVQPGRSLRLSCAASGFTFRSYVMHWVRQAPGKGLEWVAVISHEGSLKYYADSVKGRFTISRDNSKNTLYLQMNSLRAEDTAVYYCARPRIAARRGGFGYWGQGTLVTVSS VL: NFMLTQPHSVSESPGKTVTISCTRSSGAIDDNYVQWYQQRPGSSPTTVIYEDFQRPSGVPDRFSGSIDSSSNSASLTISGLKTEDEADYYCQSYDDDLQGVVFGGGTKLTVL
9 | 545000 M⁻¹ s⁻¹ | 7.58e-05 s⁻¹ | 360000 M⁻¹ s⁻¹ | 0.000118 s⁻¹ |  | SR-AB37: cycle 3 light chain-optimized antibody, lineage SR-AB22; CDRs SEQ ID NO: 136-141 (antibody, V domains shown) VH: QVQLVESGGGVVQPGRSLRLSCAASGFTFRSYVMHWVRQAPGKGLEWVAVISHEGSLKYYADSVKGRFTISRDNSKNTLYLQMNSLRAEDTAVYYCAVPRIAARRGGFGYWGQGTLVTVSS VL: NFMLTQPHSVSESPGKTVTISCTRSSGLIDDNYVQWYQQRPGSSPTTVIYEDNQRPSGVPDRFSGSIDSSSNSASLTISGLKTEDEADYYCQSYDSDLQRVVFGGGTKLTVL
10 |  |  |  |  | 0.486 nM | SR-AB41 Fab (antibody, V domains shown) VH: QVQLVESGGGVVQPGRSLRLSCAASGFTFRSYVMHWVRQAPGKGLEWVAVISHEGSLKYYADSVKGRFTISRDNSKNTLYLQMNSLRAEDTAVYYCARPRIAARRGGFGYWGQGTLVTVSS VL: NFMLTQPHSVSESPGKTVTISCTRSSGNIDNNYVQWYQQRPGSSPTTVIYEDNQRPSGVPDRFSGSIDSSSNSASLTISGLKTEDEADYYCQSYDYDNQAVVFGGGTKLTVL
